In publication PMC5646864 one finds pKa and stoichiometry N data, which are given here for two molecules.

For one data set, the target named is Cys61 (UniProt position 61, KEIAGCENRVW). Conditions: not stated (reduced thiol implied; discussed for free CsdE); cited from earlier work.
Data set [1] concerns the target T1, Escherichia coli CsdE (Escherichia coli), P0AGF2.
T1 chain: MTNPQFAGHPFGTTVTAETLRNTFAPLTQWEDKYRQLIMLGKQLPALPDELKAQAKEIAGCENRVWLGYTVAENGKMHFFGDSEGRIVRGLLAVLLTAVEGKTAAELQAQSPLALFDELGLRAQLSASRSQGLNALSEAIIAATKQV
As to the kind of experiment: crystal structure; native CsdE at 40 mg/ml in 10 mM Tris-HCl pH 8, 2 mM 2-mercaptoethanol; crystallised in 0.1 M sodium citrate pH 6.5, 20% (w/v) PEG-MME 2000 at 297 K; two monomers in the asymmetric unit joined by a Cys61-Cys61 disulfide bridge; phased by Se-SAD on SeMet crystals. As to conditions: remark: other sources report otherwise.

The term pKa denotes the pH at which an ionisable group is half protonated. In the case of “Sulfur acceptor protein CsdE (YgdK) (Escherichia coli)”, in the data set with Cys61, the pKa was 6.5.

B1: Escherichia coli CsdE, P0AGF2 1-147 (natural protein)
chain: T1 chain
The stoichiometry N is the number of molecules, sites or subunits per partner or assembly. In data set [1], B1 gave a stoichiometry N of 2.
